Source: patent publication US20250283060 (BOARD OF REGENTS, THE UNIVERSITY OF TEXAS SYSTEM, published 2025)

Columns and labels:
[1] = biological target: NPT7 v443 with NLS removed (synthetic construct); assay: cell_activity; ZsGreen reporter in HEK293T, 48 h, cytoplasmic; details: tags: NLS removed
[2] = biological target: NPT7 variant ES-443 (V3) (synthetic construct); assay: cell_activity; ZsGreen reporter fluorescence in S. cerevisiae; reflects transcription and capping; details: tags: SV40 NLS N-terminal

B1: T7 promoter WT (dsDNA)
DNA 1: TAATACGACTCACTATA
DNA 2: TATAGTGAGTCGTATTA
binding signal [1]: ~1.8 fold vs WT NPT7 | binding signal [2]: 76 fold vs K282A control
